{"source": "paper PMC6212786", "binders": {"B1": {"name": "nicked 32-bp dsDNA probe (dsDNA)", "DNA 1": "GGTAGCCACAGCCAGTCAGCCGATTGCGGGAC", "DNA 2": "GTCCCGCAATCGGCTG", "DNA 3": "ACTGGCTGTGGCTACC", "modifications": "5'-phosphate on S6 at the nick"}, "B2": {"name": "intact (unnicked) 32-bp dsDNA probe (dsDNA)", "DNA 1": "GGTAGCCACAGCCAGTCAGCCGATTGCGGGAC", "DNA 2": "GTCCCGCAATCGGCTGACTGGCTGTGGCTACC"}}, "assay_in_all_cases": "fluorescence anisotropy", "key": {"[1]": {"molecular_target": "Human DNA ligase 1 (hLig1) (human, UniProt P18858 233-919)", "sequence (P18858 233-919)": "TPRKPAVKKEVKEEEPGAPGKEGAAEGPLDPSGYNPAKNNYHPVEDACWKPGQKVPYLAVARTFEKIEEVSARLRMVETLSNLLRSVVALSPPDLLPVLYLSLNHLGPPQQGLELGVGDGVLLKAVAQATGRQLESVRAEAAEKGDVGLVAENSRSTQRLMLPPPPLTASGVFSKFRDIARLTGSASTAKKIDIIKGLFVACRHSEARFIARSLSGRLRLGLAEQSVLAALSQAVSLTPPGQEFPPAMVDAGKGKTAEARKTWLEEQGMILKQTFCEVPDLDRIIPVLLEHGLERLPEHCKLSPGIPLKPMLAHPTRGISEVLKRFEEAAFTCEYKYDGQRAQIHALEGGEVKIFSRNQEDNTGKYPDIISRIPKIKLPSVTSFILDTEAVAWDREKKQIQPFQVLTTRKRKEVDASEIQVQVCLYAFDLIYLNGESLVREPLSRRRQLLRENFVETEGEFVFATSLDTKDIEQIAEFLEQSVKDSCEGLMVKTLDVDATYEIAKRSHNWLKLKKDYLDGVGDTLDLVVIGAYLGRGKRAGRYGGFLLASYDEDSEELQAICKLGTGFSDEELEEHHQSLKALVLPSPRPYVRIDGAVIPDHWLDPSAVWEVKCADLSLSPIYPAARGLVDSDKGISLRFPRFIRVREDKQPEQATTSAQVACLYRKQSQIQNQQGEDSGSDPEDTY"}, "[2]": {"molecular_target": "T1, T4 DNA ligase NTase-OB fragment (2CT) (Bacteriophage T4 (ATCC), UniProt P00970 136-487)", "T1 sequence": "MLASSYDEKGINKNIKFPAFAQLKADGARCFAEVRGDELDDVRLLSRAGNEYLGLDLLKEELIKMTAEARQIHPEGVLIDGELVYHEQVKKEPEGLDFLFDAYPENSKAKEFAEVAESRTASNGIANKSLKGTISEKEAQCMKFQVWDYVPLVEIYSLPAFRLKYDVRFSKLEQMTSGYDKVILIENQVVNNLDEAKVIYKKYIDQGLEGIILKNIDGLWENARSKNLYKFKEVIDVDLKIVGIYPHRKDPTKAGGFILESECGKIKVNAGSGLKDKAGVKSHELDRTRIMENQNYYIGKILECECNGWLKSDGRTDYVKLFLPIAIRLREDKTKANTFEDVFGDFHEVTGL"}, "[3]": {"molecular_target": "T2, T4 DNA ligase DBD fragment (Bacteriophage T4 (ATCC), UniProt P00970 1-129)", "T2 sequence": "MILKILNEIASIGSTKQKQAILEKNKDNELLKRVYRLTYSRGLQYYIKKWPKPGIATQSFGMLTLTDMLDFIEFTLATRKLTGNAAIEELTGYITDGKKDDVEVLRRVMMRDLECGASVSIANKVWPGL"}, "[4]": {"molecular_target": "T3, T4 DNA ligase (gp30), full-length wild type (Bacteriophage T4 (ATCC), UniProt P00970 1-487)", "T3 sequence": "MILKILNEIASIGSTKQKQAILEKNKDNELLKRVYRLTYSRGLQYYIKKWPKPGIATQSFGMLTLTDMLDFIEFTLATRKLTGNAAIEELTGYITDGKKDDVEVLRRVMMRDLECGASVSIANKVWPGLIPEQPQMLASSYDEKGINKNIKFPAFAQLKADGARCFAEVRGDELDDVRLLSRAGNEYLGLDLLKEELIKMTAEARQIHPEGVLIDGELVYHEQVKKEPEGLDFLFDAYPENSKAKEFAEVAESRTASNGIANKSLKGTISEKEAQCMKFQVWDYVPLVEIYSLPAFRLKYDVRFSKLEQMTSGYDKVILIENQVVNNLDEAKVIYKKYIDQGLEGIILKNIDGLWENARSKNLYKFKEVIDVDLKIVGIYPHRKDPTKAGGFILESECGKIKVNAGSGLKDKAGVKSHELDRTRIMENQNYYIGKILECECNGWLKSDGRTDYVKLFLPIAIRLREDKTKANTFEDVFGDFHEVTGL"}}}
{"binder": "B1", "values": [{"measurement": "Kd", "setting": "[1]", "result": 7.7, "unit": "µM"}, {"measurement": "Kd", "setting": "[2]", "result": 23, "unit": "µM"}, {"measurement": "Kd", "setting": "[3]", "result": 138, "unit": "µM"}, {"measurement": "Kd", "setting": "[4]", "result": 6.3, "unit": "µM"}]}
{"binder": "B2", "values": [{"measurement": "Kd", "setting": "[1]", "result": 11, "unit": "µM"}, {"measurement": "Kd", "setting": "[2]", "result": 17, "unit": "µM"}, {"measurement": "Kd", "setting": "[3]", "result": 119, "unit": "µM"}, {"measurement": "Kd", "setting": "[4]", "result": 6.6, "unit": "µM"}]}
